Target: T1, Neutral Avidin (UniProt P02701 25-152)
T1 construct: Control coating without captured biotinylated sLe^a; also called NAV; Neutr-Avidin
Test: ELISA, hybridoma supernatant on NeutrAvidin-coated control wells without sLe^a

T1 sequence (P02701 25-152 limits assumed): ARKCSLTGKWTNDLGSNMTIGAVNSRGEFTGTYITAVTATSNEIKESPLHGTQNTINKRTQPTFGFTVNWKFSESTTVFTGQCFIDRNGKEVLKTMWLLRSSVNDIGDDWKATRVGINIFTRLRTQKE

Binder	OD (490 nm)
5B1 human anti-sLe^a monoclonal antibody (antibody, V domains shown, Human IgG1/lambda; The ADCC assay used recombinant r5B1 made in CHO cells from a full-length IgG1 vector; also called EF41-5B1; EF41-5B1(G)) VH: QVQLVESGGGSVQPGRSLRLSCEASGFTFEAYAMHWVRQPPGKGLEWVSSINWNSGRIAYADSVKGRFTISRDNARNSLYLQMNSLRLEDTAFYYCAKDIRRFSTGGAEFEYWGQGTLVTVSS VL: QSVLTQPPSASGTPGQRVTISCSGSSSNIGSNFVYWYQQLPGTAPKLLIYRNNQRPSGVPDRFSGSRSGTSASLAISGLRSEDEADYYCAAWDDSLGGHYVFGTGTKVTVL	0.05 OD (490 nm)
5H11 human anti-sLe^a monoclonal antibody (antibody, IgG1, V domains shown, Human IgG/lambda (IgG1), tested as hybridoma supernatant; also called EF41-5H11; EF41-5H11(G)) VH: QVQLLESGGGLVQPGRSLRLSCAASGFTFDEYAMHWVRQAPGKGLEWVSSVSWNSGSIGYADSVKGRFTISRDNAKNSLYLQMNSLRAEDTALYYCAKDIRTYSTGGAEFASWGQGTLVTASS VL: QSVLTQPPSASGTPGQRVTISCSGSSSNIGSNYVYWYQQVPGTAPKLLIYRNNQRPSGVPDRFSGSKSGTSASLAISGLRSEDEADYYCAAWDDSLSGHYVFGTGTKVTVL	0.05 OD (490 nm)
9H3 human anti-sLe^a monoclonal antibody (antibody, IgG1, V domains shown, Human IgG/lambda (IgG1), tested as hybridoma supernatant; also called EF41-9H3; EF41-9H3 (G)) VH: EVQLLESGGGLVQPGRSLRLSCAASGFTFDDYVMHWVRQAPGKGLEWVSSISWNSGSIGYADSVKGRFIISRDNAKNSLYLQMNSLRAEDTALYYCAKDRRIRGDSGFEGDYWGQGTLVTVSS VL: not shown	0.05 OD (490 nm)
7E3 human anti-sLe^a monoclonal antibody (antibody, V domains shown, Human IgM/kappa, tested as hybridoma supernatant; also called EF41-7E3; EF41-7E3 (M)) VH: QVQLLESGGGVVQPGRSLRLSCAASGFTFSFYGMHWVRQAPGKGLEWVAAISYDGSNKYYADSVKGRFTISRDNSKNTLYLQMNSLRAEDTAVYYCAKRPNQFYCSDGRCYSIDYWGQGTLVTVSS VL: not shown	0.05 OD (490 nm)
